Test results published in patent US7056679 (ANTYRA, dated 2006).

How the values were obtained:
Assay in all cases: phage ELISA
[1] = target: T1, lactate dehydrogenase (LDH)
T1 construct: Coated at 500 ng/well as non-specific target; also called LDH polypeptide
Procedure: (§1) For analysis of individual target binders, colonies were picked and phage prepared as described above using helper phage, M13KO7. Ninety-six-well microtiter plates were coated with 500 ng/well of specific target protein, 500 ng/well lactate dehydrogenase (LDH) irrelevant or non-specific target, 500 ng/well of positive control antibody raised against ETAG, and negative control of non-fat milk powder-PBS 2% at 4° C. overnight. Plates were then blocked with 350 microliters/well PBS containing 2% non-fat milk for 1 hr at room temperature. One hundred microliters per well of phage from isolated clones were added and plates were incubated at room temperature for 2 hr after centrifuging samples for 20 minutes at 3500 rpm at 4° C. The phage solution was then removed, and the wells were washed three times with PBS at room temperature. Antibody raised against M13 conjugated to horseradish peroxidase (Pharmacia) was diluted 1:3000 in PBS-Tween and added to each well (100 µl/well). Incubation was for 1 hr at room temperature, followed by washing with PBS-(0.5%) Tween 3 times as described. Color was developed by addition of ABTS solution (100 µl/well; Boehringer, Indianapolis, Ind.). Plates were analyzed at 405 nm. A clone was considered "positive" if the $A405$ of the well was $\geq$2-fold over background.

DGI-2 polypeptide = target: T2, DGI-2 polypeptide (UniProt Q15004 1-111, limits assumed)
T2 construct: Soluble recombinant protein coated at 500 ng/well; vector tag of pIVEX2.3-MCS not described for this construct; also called KIAA0101
T2 sequence (looked up): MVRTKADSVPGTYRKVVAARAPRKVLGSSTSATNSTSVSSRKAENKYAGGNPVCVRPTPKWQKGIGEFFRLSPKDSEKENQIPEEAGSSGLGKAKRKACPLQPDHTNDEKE
Procedure: as §1

[2] = target: T3, antibody raised against ETAG
T3 construct: Coated at 500 ng/well; also called E-tag antibody
Procedure: as §1

Row | Binder | LDH (OD) [1] [OD] | DGI-2 (OD) (DGI-2 polypeptide) | DGI-2/LDH (DGI-2 polypeptide) [ratio] | ETAG (OD) [2] [OD]
1 | GRWDGWEVCGIWGADDCASGAAAGAPVPYPDPLEPRP [DGI-2-20R-4-H1] | 1.2 | 9.3 | 7.8 | 14
2 | DGRGWGAMWMRWAEGLGADIAAAGAPVPYPDPLEPRP [DGI-2-20R-4-G114] | 1.2 | 12.9 | 11 | 16.5
3 | DGI-2-40F-3-D1044 (peptide) peptide: DRVARLATPTAGTMAAGSLGYERTVGCDSQDWFRCVVEGLAAAGAPVPYPDPLEPRP | 1.3 | 7.9 | 6.2 | 17.7
4 | VSFAHDWGRWWYQWEVGAAAGAPVPYPDPLEPRP [DGI-2-20R-4-G22] | 1.2 | 7.9 | 6.5 | 12.9
5 | VWRDWVNGTVGLRNREKPGVAAAGAPVPYPDPLEPRP [DGI-2-20R-3-A5] | 1.1 | 10.9 | 9.8 | 14.9
6 | SLECWAMPGMVVRLVGCDGPAAAGAPVPYPDPLEPRP [DGI-2-20R-4-H112] | 1.1 | 6.6 | 6 | 12.3
7 | LFSATGCALMSGFCLGSDGSAAAGAPVPYPDPLEPRP [DGI-2-20R-3-C1] | 1 | 8.2 | 8.3 | 14
8 | WGCVFRQWASGSGAGCARRHAAAGAPVPYPDPLEPRP [DGI-2-20R-3-D9] | 1 | 6.7 | 6.4 | 19.7
9 | RDTMCGSVSWGIPGCEYSGMAAAGAPVPYPDPLEPRP [DGI-2-20R-4-G122] | 1.1 | 7.6 | 7.1 | 13.9
10 | WWREWVDGSLRGGGGTVLKDAAAGAPVPYPDPLEPRP [DGI-2-20R-3-A122] | 1 | 9.6 | 9.4 | 15.1
11 | RGVNSDMPRLYICRADGQGQAAAGAPVPYPDPLEPRP [DGI-2-20F-PP-H6] | 0.8 | 1.6 | 1.9 | 18.9
12 | GAIRLSGAAWTASRTGGRASAAAGAPVPYPDPLEPRP [DGI-2-20F-PP-E7] | 0.9 | 1.6 | 1.8 | 21.5
13 | VWAAWVEGSLLSPRQEPVRDAAAGAPVPYPDPLEPRP [DGI-2-20R-4-G4] | 1 | 10.2 | 9.8 | 13.6
14 | QLDCLVWGLPGLRCDRPLEQAAAGAPVPYPDPLEPRP [DGI-2-20R-3-B10] | 1 | 7.8 | 7.6 | 17
15 | GHGAGDWAAELFVCPVAFLTGFAWRAAAGAPVPYPDPLEPRP [DGI-2-20R-4-H2] | 1.1 | 9.9 | 9.2 | 12.9
16 | RRILPWSFPGCGRMCAAAGAPVPYPDPLEPRP [DGJ-2-20R-3-A10] | 1.1 | 6.2 | 5.9 | 16.4
17 | TIDVARRFGYGWWDLWLDGDAAAGAPVPYPDPLEPRP [DGI-2-20R-3-C3] | 1.1 | 7.9 | 7 | 20.2
18 | EGNWFCAVFRGFCVGDRGPEAAAGAPVPYPDPLEPRP [DGI-2-20R-3-A1] | 1.1 | 7.1 | 6.3 | 11.1

Row | Binder | LDH (OD) [1] [OD] | DGI-2 (OD) (DGI-2 polypeptide) | DGI-2/LDH (DGI-2 polypeptide) [ratio] | ETAG (OD) [2] [OD]
19 | WWERFVWGRPVDDGVVVMATAAAGAPVPYPDPLEPRP [DGI-2-20R-3-B1] | 1 | 6.3 | 6.2 | 14.5
20 | LWRRWSEGQLLGDGELRGDGAAAGAPVPYPDPLEPRP [DGI-2-20R-3-B52] | 1 | 8.7 | 8.4 | 15.8
21 | RRGVCEIFTGWCVGQTNERPAAAGAPVPYPDPLEPRP [DGI-2-20R-4-H626] | 1.1 | 9.6 | 8.8 | 13.5
22 | RKGWGVFCIPGLRFCDWSDPAAAGAPVPYPDPLEPRP [DGI-2-20R-3-B4] | 1 | 8.4 | 8.6 | 17.4
23 | LSLEGGWMWDTKGGDGGSAQAAAGAPVPYPDPLEPRP [DGI-2-20R-4-F93] | 1.1 | 9 | 8.4 | 19.5
24 | RTLFINGGCCGKGSGGGRPLAAAGAPVPYPDPLEPRP [DGI-2-20F-PP-G1] | 1 | 1.4 | 1.4 | 21.8
25 | GWSDFVATGSWSGQVSAALNAAAGAPVPYPDPLEPRP [DGI-2-20R-4-F120] | 1.1 | 13.6 | 12.2 | 16.5
26 | CGGWGAMWEAWVQGLNGAGCAAAGAPVPYPDPLEPRP [DGI-2-20R-3-D4] | 1.1 | 8.7 | 8.1 | 18.9
27 | QMSRVAFSPGESWRRWVEGVAAAGAPVPYPDPLEPRP [DGI-2-20R-3-A2] | 1 | 7.5 | 7.5 | 14.2
28 | RSIRLQLIDEACQFFDGLCTAAAGAPVPYPDPLEPRP [DGI-2-20R-3-A8] | 1.1 | 6.9 | 6.4 | 15.3
29 | DGI-2-40F-4-F97 (peptide) peptide: QVGGMTQVGATVLSVVTGRGSCDGEDAWYPPGVTVGLGLCAAAGAPVPYPDPLEPRP | 1 | 6.7 | 6.4 | 14
30 | DQRVVGSGWFERLRNWYDRAAAAGAPVPYPDPLEPRP [DGI-2-20R-4-G99] | 1 | 7.5 | 7.2 | 14.1
31 | VLGADAGMIWFMDGCGIRCRAAAGAPVPYPDPLEPRP [DGI-2-20R-4-E6] | 1 | 7 | 7 | 19.1
32 | SWACGLLWPGECGSQVARRGAAAGAPVPYPDPLEPRP [DGI-2-20R-3-D127] | 1 | 6.7 | 6.4 | 15.4
33 | FRMWVQSCFWGQPGTGCGEGAAAGAPVPYPDPLEPRP [DGI-2-20R-3-D2] | 1.1 | 7.9 | 7.5 | 14.3
34 | RDTTSQWSWISRGWEFPGWRAAAGAPVPYPDPLEPRP [DGI-2-20R-3-C2] | 1.1 | 6.2 | 5.8 | 11.9
35 | SRELGKWGRLWQDWSSGNFSAAAGAPVPYPDPLEPRP [DGI-2-20R-3-C11] | 1 | 8.6 | 8.3 | 18.9
